Test results: US20150050278A1

Columns and labels:
nucleolin = nucleolin (UniProt P19338); assay: ELISA (FIG. 11)
gp140 [1] = assay: ELISA (FIG. 10)
gp140 [2] = assay: ELISA on gp140, OD405

B1: gn1 (designed binder)
chain: APELLGGPSVFLFPPSPKDTLMISRTPEVTCVVVDVSHEDPEVKFNWYVDGVEVHNAKTKPREEQYNSTYSVASLLTVLHQDWLNGKEYKCKVSNKALPAPIEKTISKAKGQPREPQVYTSPPSRDELTKNQVSLRCHVKGFYPSDIAVEWESNGQGAKGSSGSTWGYGMDVWVPVLDSDSSFFLYSKLTVDKSRWQQGNVFSCSVMHEALHNHYTQKSLSLSPGK
Question: How did the affinity (nucleolin) turn out when B1 was run?
Answer: Its affinity is 50 nM.

B2: gg37 (designed binder)
chain: APELLGGPSVFLFPPTPKDTLMISRTPEVTCVVVDVSHEDPEVKFNWYVDGVEVHNAKTKPREEQYNSTYGVSSGLTVLHQDWLNGKEYKCKVSNKALPAPIEKTISKAKGQPREPQVYTSPPSRDELTKNQVSLRCHVKGFYPSDIAVEWESNGQGARGGMNWFDPWVPVLDSDGSFFLYGKLTVDKSRWQQGNVFSCSVMHEALHNHYTQKSLSLSPGK
Question: For B2, which affinity (gp140 [1]) is on record?
Answer: The affinity was 50 nM.

Question: And the EC50 (read off the curve) (gp140 [2])?
Answer: Its EC50 (read off the curve) is 80 nM.
